Here are results for three molecules from US20100196953.

Where a chain is given by its changes, count along the chain named.

Series [1] deals with pre-pro-insulin glargine.
Series [2] concerns the target pre-pro-insulin glargine. This is another data set of the same source.
The target of series [3] is pre-pro-insulin glulisine.
The target of series [4] is pre-pro-insulin (human insulin).

For the molecule Serine190Alanine human trypsin variant, the “by-product formation in pre-pro-insulin processing (HPLC)” value in series [1] was “High amounts of by-products, mainly B30-des-Thr- and A0-components, are formed during reaction”.

B1: Ser172Ala porcine trypsin (protein)
chain: IVGGYTCAANSIPYQVSLNSGSHFCGGSLINSQWVVSAAHCYKSRIQVRLGEHNIDVLEGNEQFINAAKIITHPNFNGNTLDNDIMLIKLSSPATLNSRVATVSLPRSCAAAGTECLISGWGNTKSSGSSYPSLLQCLKAPVLSDSSCKSSYPGQITGNMICVGFLEGGKDACQGDSGGPVVCNGQLQGIVSWGYGCAQKNKPGVYTKVCNYVNWIQQTIAAN
In series [2], B1 came in with an Insulin glargine [area %] of 55.5 area %, a Yield (external standard) [%] of 62.9%, a des-Thr [area %] of 2.6 area % and a pre-Insulin glargine [area %] of 0.4 area %. The Σ A0 compounds [area %] in series [2] was found to be 5.1 area %. In series [3], the A0-Arg-insulin glulisine [area %] turned out to be 1.2 area %, the Arg-insulin-glulisine [area %] turned out to be 39.2 area % and the Yield (external standard) [%] turned out to be 100%. Also, in series [4], the Yield (external standard) [%] was 96.5%, the des-Thr [area %] was determined as 3.3 area %, the Σ A0 compounds [area %] turned out to be 4.1 area % and the Σ Arg-Ins [area %] was determined as 82.5 area %. The molecule also gave a Σ pre-Arg-Ins [area %] in series [4] of 0.9 area %.

B2: native, recombinant porcine trypsin (wildtype porcine pancreatic trypsin isoform I) (protein)
chain: B1 chain with A172S
In series [2], B2 showed an Insulin glargine [area %] of 51.1 area %, a Yield (external standard) [%] of 58.1%, a des-Thr [area %] of 5.6 area % and a pre-Insulin glargine [area %] of 0.5 area %. The Σ A0 compounds [area %] in series [2] worked out at 10.9 area %. Moreover, in series [3], the A0-Arg-insulin glulisine [area %] was found to be 4.7 area %, the Arg-insulin-glulisine [area %] was determined as 35.8 area % and the Yield (external standard) [%] worked out at 91.6%. Also, in series [4], the Yield (external standard) [%] is 84.2%, the des-Thr [area %] was 7.2 area %, the Σ A0 compounds [area %] is 10.7 area % and the Σ Arg-Ins [area %] amounted to 68.8 area %. The Σ pre-Arg-Ins [area %] in series [4] was found to be 1.4 area %.
